# Columns and labels:
# Assay in all cases: cell-based or functional assay
# TCR Vβ8 (human) = biological target: TCR Vβ8 (human)
# TCR Vβ2 (human) = biological target: TCR Vβ2 (human)
# TCR Vβ5 (human) = biological target: TCR Vβ5 (human)
substance,measurement,setting,value
H-TSST1 (ligand),CD3^+ Blasts Binding Anti-Vβ (%),TCR Vβ8 (human),4.6%
same,"CD3^+ Blasts Binding Anti-Vβ, fold difference versus unstimulated controls",TCR Vβ8 (human),1.1 fold
same,CD3^+ Lymphocytes Binding Anti-Vβ (%),TCR Vβ8 (human),4.1%
same,"CD3^+ Lymphocytes Binding Anti-Vβ, fold difference versus unstimulated controls",TCR Vβ8 (human),1 fold
same,CD3^+ Blasts Binding Anti-Vβ (%),TCR Vβ2 (human),33%
same,"CD3^+ Blasts Binding Anti-Vβ, fold difference versus unstimulated controls",TCR Vβ2 (human),3.4 fold
same,CD3^+ Lymphocytes Binding Anti-Vβ (%),TCR Vβ2 (human),5.1%
same,"CD3^+ Lymphocytes Binding Anti-Vβ, fold difference versus unstimulated controls",TCR Vβ2 (human),0.5 fold
same,CD3^+ Blasts Binding Anti-Vβ (%),TCR Vβ5 (human),4.5%
same,"CD3^+ Blasts Binding Anti-Vβ, fold difference versus unstimulated controls",TCR Vβ5 (human),2 fold
same,CD3^+ Lymphocytes Binding Anti-Vβ (%),TCR Vβ5 (human),2%
same,"CD3^+ Lymphocytes Binding Anti-Vβ, fold difference versus unstimulated controls",TCR Vβ5 (human),0.9 fold

# Source: US20030032582A1
